In patent publication US20150119554A1:

What was measured:
[1] = molecular target: antigen of scFv1 (Example 6); experiment: microarray of spotted films, 10 nM biotinylated antigen, Alexa-647-labeled streptavidin, spot intensity; reference scFv1 control
[2] = molecular target: antigen of the ScFv (Example 1); experiment: spotted films, Alexa647-labelled pure antigen, fluorescence; reference ScFv alone

Binder | fold increase of antigen recognition compared to the scFv1 control alone [1] | fold more antigen bound compared to ScFv alone [2]
His6-scFv1-NTCT (scFv) MGSSGHHHHHHMEVQLLESGGGLVQPGGSLRLSCAASGFTFSSYEMNWVRQAPGKGLEWVSGISGSGGFTYYADSVKGRFTISRDNSKNTLYLQMNSLRAEDTAMYYCAREGYQDAFDIWGQGTLVTVSSGGGGSGGGGSGGGGSQSVLTQPPSASGTPGQRVTISCTGSSSNIGAGYDVHWYQQLPGTAPKLLIYSNNQRPSGVPDRFSGSKSGTSASLAISGLRSEDEADYYCAAWDDSLSGPPWVFGGGTKLTVLGEQKLISEEDLSGSAAAGNSSHTTPWTNPGLAENFMNSFMQGLSSMPGFTASQLDDMSTIAQSMVQSIQSLAAQGRTSPNKLQALNMAFASSMAEIAASEEGGGSLSTKTSSIASAMSNAFLQTTGVVNQPFINEITQLVSMFAQAGMNDVSAGNSGIQGYGQSSASASAAASAASTVANSVSRLSSPSAVSRVSSAVSSLVSNGQVNMAALPNIISNISSSVSASAPGASGCEVIVQALLEVITALVQIVSSSSVGYINPSAVNQITNVVANAMAQVMG | 25 times | –
His6Rep4CTScFv (scFv) MHHHHHHGQGGYGGLGQGGYGQGAGSSAAAAAAAAAAAAGGQGGQGQGGYGQGSGGSAAAAAAAAAAAAAAAGRGQGGYGQGSGGNAAAAAAAAAAAAAAAGQGGQGGYGRQSQGAGSAAAAAAAAAAAAAAGSGQGGYGGQGQGGYGQSSASASAAASAASTVANSVSRLSSPSAVSRVSSAVSSLVSNGQVNMAALPNIISNISSSVSASAPGASGCEVIVQALLEVITALVQIVSSSSVGYINPSAVNQITNVVANAMAQVMGGNSEVQLLESGGGLVQPGGSLRLSCAASGFTFSSYEMNWVRQAPGKGLEWVSGISGSGGFTYYADSVKGRFTISRDNSKNTLYLQMNSLRAEDTAMYYCAREGYQDAFDIWGQGTLVTVSSGGGGSGGGGSGGGGSQSVLTQPPSASGTPGQRVTISCTGSSSNIGAGYDVHWYQQLPGTAPKLLIYSNNQRPSGVPDRFSGSKSGTSASLAISGLRSEDEADYYCAAWDDSLSGPPCVFGGGTKLTVLGEQKLISEEDLSGSAAA | – | > 10 times
His6ScFvRep4CT (scFv) MGSSGHHHHHHMEVQLLESGGGLVQPGGSLRLSCAASGFTFSSYEMNWVRQAPGKGLEWVSGISGSGGFTYYADSVKGRFTISRDNSKNTLYLQMNSLRAEDTAMYYCAREGYQDAFDIWGQGTLVTVSSGGGGSGGGGSGGGGSQSVLTQPPSASGTPGQRVTISCTGSSSNIGAGYDVHWYQQLPGTAPKLLIYSNNQRPSGVPDRFSGSKSGTSASLAISGLRSEDEADYYCAAWDDSLSGPPCVFGGGTKLTVLGEQKLISEEDLSGSAAAGNSGQGGYGGLGQGGYGQGAGSSAAAAAAAAAAAAGGQGGQGQGGYGQGSGGSAAAAAAAAAAAAAAAGRGQGGYGQGSGGNAAAAAAAAAAAAAAAGQGGQGGYGRQSQGAGSAAAAAAAAAAAAAAGSGQGGYGGQGQGGYGQSSASASAAASAASTVANSVSRLSSPSAVSRVSSAVSSLVSNGQVNMAALPNIISNISSSVSASAPGASGCEVIVQALLEVITALVQIVSSSSVGYINPSAVNQITNVVANAMAQVMG | – | 10 times
